In patent US20150290345A1:

Molecular target: Recombinant Human ErbB2/Fc Chimera (R&D Systems, Inc.) (human) (UniProt P04626)
Assay: SPR, ProteOn XPR36; ErbB2/Fc amine-coupled on GLM chip (about 3000 RU), 1:1 Langmuir fit

Kd [nM] | Substance
0.24 | L2-ICG-HSA (Affibody-immobilized ICG-HSA, SM(PEG)2 linker at 100 times the molar amount of ICG-HSA) (from UniProt P02768 25-609)
2.3 | L1-ICG-HSA (Affibody-immobilized ICG-HSA, SM(PEG)2 linker at 10 times the molar amount of ICG-HSA) (from UniProt P02768 25-609)
